What all share (experiment): cross-linking; BMOE (0.64 mM) cross-linking of engineered cysteine pairs; 0.7 uM cohesin (Smc1, Smc3, and Scc1) and Scc2 in 25 mM HEPES pH 7.5, 50 mM NaCl, 1 mM MgCl2, 1 mM TCEP, 5% glycerol; 24°C, 5 min; with or without 10 mM ATP and 60 nM supercoiled pUC19; SDS-PAGE
Common to all, as to conditions: both partners purified

Assay [1] concerns the target T1, cohesin (Smc1-His E1102C, Smc3, Scc1-StrepII) (S. cerevisiae, UniProt P32908 1-1225; P47037 1-1230; Q12158 1-566, E1102C).
T1 construct: Smc1, cohesin subunit, S. cerevisiae; Smc3, cohesin subunit, S. cerevisiae; Scc1 (kleisin subunit of cohesin), S. cerevisiae; Tied to the cross-linking experiment by its substitution; also called Smc1E1102C; cohesin (Smc1, Smc3, and Scc1); source: prepared as described in Collier et al., 2020 (pACEbac1i plasmid); purified; copies: + +

For assay [2], the target named is T2, cohesin (Smc1, Smc3 S72C, Scc1-StrepII) (S. cerevisiae, UniProt P32908 1-1225; P47037 1-1230; Q12158 1-566, S72C).
T2 construct: Smc1, cohesin subunit, S. cerevisiae; Smc3, cohesin subunit, S. cerevisiae; Scc1 (kleisin subunit of cohesin), S. cerevisiae; Tied to the cross-linking experiment by its substitution; also called cohesin (Smc1, Smc3, and Scc1); source: prepared as described in Collier et al., 2020 (pACEbac1i plasmid); purified; copies: + +
T2 sequence (P32908 whole entry, chain 1 of 3): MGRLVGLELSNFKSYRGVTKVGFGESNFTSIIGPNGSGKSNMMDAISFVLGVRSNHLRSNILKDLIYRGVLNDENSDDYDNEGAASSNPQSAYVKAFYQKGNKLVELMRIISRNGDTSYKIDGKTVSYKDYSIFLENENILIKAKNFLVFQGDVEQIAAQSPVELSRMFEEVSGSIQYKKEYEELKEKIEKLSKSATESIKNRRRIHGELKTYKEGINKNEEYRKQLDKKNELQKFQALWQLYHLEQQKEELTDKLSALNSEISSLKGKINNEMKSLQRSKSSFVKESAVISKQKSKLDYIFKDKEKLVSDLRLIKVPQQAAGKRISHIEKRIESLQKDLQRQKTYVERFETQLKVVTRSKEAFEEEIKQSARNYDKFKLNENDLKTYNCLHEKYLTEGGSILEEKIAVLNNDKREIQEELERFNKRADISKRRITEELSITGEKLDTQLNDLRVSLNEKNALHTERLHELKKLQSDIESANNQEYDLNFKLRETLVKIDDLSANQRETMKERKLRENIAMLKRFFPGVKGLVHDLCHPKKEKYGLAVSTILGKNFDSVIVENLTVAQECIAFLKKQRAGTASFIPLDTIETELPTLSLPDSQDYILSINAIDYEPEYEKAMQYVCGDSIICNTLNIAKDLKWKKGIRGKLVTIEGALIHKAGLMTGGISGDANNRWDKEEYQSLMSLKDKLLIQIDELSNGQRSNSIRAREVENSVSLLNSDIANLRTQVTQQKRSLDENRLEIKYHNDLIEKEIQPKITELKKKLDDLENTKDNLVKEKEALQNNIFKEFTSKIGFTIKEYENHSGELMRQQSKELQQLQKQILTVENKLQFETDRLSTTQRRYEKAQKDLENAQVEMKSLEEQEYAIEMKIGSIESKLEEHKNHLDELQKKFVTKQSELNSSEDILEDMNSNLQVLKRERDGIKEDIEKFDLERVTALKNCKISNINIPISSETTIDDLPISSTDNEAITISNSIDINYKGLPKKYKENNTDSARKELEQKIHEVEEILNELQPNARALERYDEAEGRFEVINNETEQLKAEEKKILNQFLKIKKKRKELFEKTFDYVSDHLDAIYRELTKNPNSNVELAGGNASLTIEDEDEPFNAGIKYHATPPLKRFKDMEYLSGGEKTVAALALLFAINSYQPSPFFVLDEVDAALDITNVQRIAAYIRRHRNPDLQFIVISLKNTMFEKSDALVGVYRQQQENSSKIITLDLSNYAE
T2 sequence (P47037 whole entry S72C, chain 2 of 3): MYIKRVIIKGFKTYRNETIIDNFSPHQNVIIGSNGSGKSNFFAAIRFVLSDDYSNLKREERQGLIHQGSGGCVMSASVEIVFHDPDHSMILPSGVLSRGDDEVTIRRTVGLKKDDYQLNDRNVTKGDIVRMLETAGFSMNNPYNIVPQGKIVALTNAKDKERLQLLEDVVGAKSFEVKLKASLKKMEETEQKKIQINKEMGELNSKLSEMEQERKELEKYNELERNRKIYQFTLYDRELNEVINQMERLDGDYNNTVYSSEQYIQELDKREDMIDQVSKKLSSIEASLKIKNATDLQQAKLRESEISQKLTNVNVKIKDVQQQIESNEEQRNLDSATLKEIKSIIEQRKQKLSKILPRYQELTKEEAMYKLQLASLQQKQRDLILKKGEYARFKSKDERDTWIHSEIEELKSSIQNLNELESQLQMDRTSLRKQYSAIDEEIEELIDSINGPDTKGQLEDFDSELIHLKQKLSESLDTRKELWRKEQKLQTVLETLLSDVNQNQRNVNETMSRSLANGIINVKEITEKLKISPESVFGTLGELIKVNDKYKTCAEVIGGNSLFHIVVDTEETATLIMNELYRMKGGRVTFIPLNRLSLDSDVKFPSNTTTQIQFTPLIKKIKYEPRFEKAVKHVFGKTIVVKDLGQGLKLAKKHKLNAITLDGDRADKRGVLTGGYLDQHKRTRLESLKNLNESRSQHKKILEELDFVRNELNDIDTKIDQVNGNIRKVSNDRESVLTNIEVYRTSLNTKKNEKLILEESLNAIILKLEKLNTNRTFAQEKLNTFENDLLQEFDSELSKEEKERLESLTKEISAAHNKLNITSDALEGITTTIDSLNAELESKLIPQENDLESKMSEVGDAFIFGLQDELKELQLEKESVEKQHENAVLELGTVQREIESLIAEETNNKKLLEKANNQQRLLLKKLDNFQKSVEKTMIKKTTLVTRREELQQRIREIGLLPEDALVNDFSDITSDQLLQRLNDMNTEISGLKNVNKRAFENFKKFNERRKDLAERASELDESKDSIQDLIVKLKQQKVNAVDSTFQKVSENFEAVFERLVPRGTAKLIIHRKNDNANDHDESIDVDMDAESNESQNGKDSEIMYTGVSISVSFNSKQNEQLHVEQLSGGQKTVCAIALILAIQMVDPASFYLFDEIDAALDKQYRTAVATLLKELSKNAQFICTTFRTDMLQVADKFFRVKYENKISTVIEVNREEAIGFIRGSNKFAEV
T2 sequence (Q12158 whole entry, chain 3 of 3): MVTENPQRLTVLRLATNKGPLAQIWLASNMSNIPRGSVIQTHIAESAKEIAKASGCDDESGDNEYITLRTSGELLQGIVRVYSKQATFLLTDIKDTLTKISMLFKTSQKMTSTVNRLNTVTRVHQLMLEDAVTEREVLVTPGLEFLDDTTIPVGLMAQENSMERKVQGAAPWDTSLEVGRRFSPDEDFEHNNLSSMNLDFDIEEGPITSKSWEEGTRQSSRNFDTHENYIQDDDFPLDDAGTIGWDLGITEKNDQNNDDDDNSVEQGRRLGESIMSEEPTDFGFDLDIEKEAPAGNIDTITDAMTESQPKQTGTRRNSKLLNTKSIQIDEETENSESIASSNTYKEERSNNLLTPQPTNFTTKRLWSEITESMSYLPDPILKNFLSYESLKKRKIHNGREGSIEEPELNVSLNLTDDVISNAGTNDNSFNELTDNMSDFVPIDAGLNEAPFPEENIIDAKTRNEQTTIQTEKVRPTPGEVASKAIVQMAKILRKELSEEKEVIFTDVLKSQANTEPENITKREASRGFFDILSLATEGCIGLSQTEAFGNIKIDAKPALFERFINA

For assay [3], the target named is T3, cohesin (Smc3 K1004C, Smc1, Scc1-StrepII) (S. cerevisiae, UniProt P32908 1-1225; P47037 1-1230; Q12158 1-566, K1004C).
T3 construct: Smc1, cohesin subunit, S. cerevisiae; Smc3, cohesin subunit, S. cerevisiae; Scc1 (kleisin subunit of cohesin), S. cerevisiae; Tied to the cross-linking experiment by its substitution; also called cohesin (Smc1, Smc3, and Scc1); source: prepared as described in Collier et al., 2020 (pACEbac1i plasmid); purified; copies: + +
T3 sequence (P32908 whole entry, stated change not applied, chain 1 of 3): as the sequence (P32908 whole entry, chain 1 of 3) above
T3 sequence (P47037 whole entry K1004C, chain 2 of 3): as the sequence (P47037 whole entry S72C, chain 2 of 3) above, with C72S, K1004C counted along it
T3 sequence (Q12158 whole entry, chain 3 of 3): as the sequence (Q12158 whole entry, chain 3 of 3) above

Where a chain is given by its changes, count along the chain named.

T1 sequence (P32908 whole entry E1102C, chain 1 of 3): as the sequence (P32908 whole entry, chain 1 of 3) above, with E1102C counted along it
T1 sequence (P47037 whole entry, chain 2 of 3): as the sequence (P47037 whole entry S72C, chain 2 of 3) above, with C72S counted along it
T1 sequence (Q12158 whole entry, chain 3 of 3): as the sequence (Q12158 whole entry, chain 3 of 3) above

B1: Scc2 133-1493-StrepII T1281C (domain or fragment, S. cerevisiae, UniProt Q04002 133-1493, looked up)
chain: KSEIVSRPEAKHKLESVTSNAGNLSFNDNSSNKKTKTSTGVTMTQANLAEQYLNDLKNILDIVGFDQNSAEIGNIEYWLQLPNKKFVLTTNCLTKLQMTIKNITDNPQLSNSIEITWLLRLLDVMVCNIKFSKSSLKMGLDDSMLRYIALLSTIVLFNIFLLGKNDSNLHRESYIMEPVNFLSDLIESLKILTIEYGSLKIEFDTFQEALELLPKYIRNGPFLDDNVTAKLVYIFSDLLMNNDIEATTNIQFQSFWDNVKRISSDILVSLFGSFDQQRGFIIEELLSHIEKLPTKRIQKKLRKVGNQNIYITDFTFTLMSMLENINCYSFCNQMKDIAPENIDLLKNEYKKQEEFLFNIVEHINDTILERFFKNPSALRYVIDNFVQDLLLLISSPQWPVTEKILSSLLKRLLSVYSPSMQVSANIETICLQLIGNIGSTIFDIKCSTRDHEDNNLIKMINYPETLPHFFKSFEECIAYNETIKCRRSATRFLWNLRLGTILILEEYTKDAKEQIITVDNELKKILEQIKDGGLGPELENREADFSTIKLDYFSILHAFELLNLYDPYLKLILSLLAKDKIKLRSTAIKCLSMLASKDKVILSNPMVKETIHRRLNDSSASVKDAILDLVSINSSYFEFYQQINNNYNDDSIMVRKHVLRINEKMYDETNDIVTKVYVIARILMKIEDEEDNIIDMARLILLNRWILKVHEVLDQPEKLKEISSSVLLVMSRVAIMNEKCSQLFDLFLNFYLLNKEAHSKEAYDKITHVLTILTDFLVQKIVELNSDDTNEKNSIVDKQNFLNLLAKFADSTVSFLTKDHITALYPYMVSDEKSDFHYYILQVFRCTFEKLANFKQKFLYDLETTLLSRLPKMNVREIDEAMPLIWSVATHRHDTARVAKACSSCLSHLHPYINKANNEEAAIVVDGKLQRLIYLSTGFARFCFPKPSNDKIAFLQEGETLYEHITKCLLVLSKDKITHVIRRVAVKNLTKLCGNHPKLFNSRHVLHLLDKEFQSDQLDIKLVILESLYDLFLLEERKSVRNTGVNSTLSSNSILKKKLLKTNRVEFANDGVCSALATRFLDNILQLCLLRDLKNSLVAIRLLKLILKFGYTNPSHSIPTVIALFASTSQYIRHVAYELLEDLFEKYECLVFSSLSRGVTKAIHYSIHTDEKYYYKHDHFLSLLEKLCGTGKKNGPKFFKVLKRIMQSYLDDITDLTSTNSSVQKSIFVLCTNISNITFVSQYDLVSLLKTIDLTTDRLKEVIMDEIGDNVSSLSVSEEKLSGIILIQLSLQDLGTYLLHLYGLRDDVLLLDIVEESELKNKQLPAKKPDISKFSAQLENIEQYSSNGKLLTYFRKHVKDT
notes: Scc2, cohesin loader subunit, S. cerevisiae, residues 133-1493; pACEbac1 is a baculovirus transfer vector, so insect cells are surmised; also called Scc2T1281C; source: prepared as described in Collier et al., 2020 (pACEbac1 plasmid); purified
As for B1, the binding result in assay [1] was “binds”.

B2: Scc2 133-1493-StrepII E819C (domain or fragment, S. cerevisiae, UniProt Q04002 133-1493, looked up)
chain: B1 chain with E687C, C1149T
notes: Scc2, cohesin loader subunit, S. cerevisiae, residues 133-1493; also called Scc2E819C; source: prepared as described in Collier et al., 2020 (pACEbac1 plasmid); purified
For the molecule B2, in assay [2], the binding result is listed as “binds”.

B3: Scc2 133-1493-StrepII D369C (domain or fragment, S. cerevisiae, UniProt Q04002 133-1493, looked up)
chain: B1 chain with D237C, C1149T
notes: Scc2, cohesin loader subunit, S. cerevisiae, residues 133-1493; also called Scc2D369C; source: prepared as described in Collier et al., 2020 (pACEbac1 plasmid); purified
Take B3: the binding result in assay [3] is given as “binds”.

The values are drawn from article PMC9467508, “DNA passes through cohesin’s hinge as well as its Smc3–kleisin interface” (eLife, 2022).
